Measured values from paper PMC3612083, “Imaging Beads-Retained Prey Assay for Rapid and Quantitative Protein-Protein Interaction” (PLoS ONE, 2013).
No end group written: not given here.

How the values were obtained:
[1] = biological target: T1, GST-GRIP Y2177A (Golgin245 GRIP Y2177A in pGEB) (UniProt Q13439 2168-2215, Y2177A); assay: pull-down; imaging beads-retained prey (IBRP) assay: GST-bait on glutathione beads (16 µg/µl), HEK293 lysate with GFP-prey, 100 µM GMPPNP; 30 min at 4°C, washes with 300 mM NaCl, bead fluorescence imaged; GFP lysate as control; conditions: one partner purified
T1 construct: GRIP domain of Golgin245 with Y2177A; insert moved from the pEGFP-C2 construct by EcoRI/BamHI into pGEB; pGEB is a modified pGEX-KG vector; also called Y2177A mutant
T1 chain (looked up): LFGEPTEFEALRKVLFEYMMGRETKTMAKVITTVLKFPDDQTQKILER

[2] = biological target: T2, GST-Arl1 (UniProt P61212 1-181); assay: pull-down; IBRP assay: GST-Arl1 on glutathione beads (13 µg/µl) loaded with GMPPNP, HEK293 lysate with GFP-prey; bead fluorescence imaged; conditions: one partner purified
T2 construct: Arl1; also called Arl1-GMPPNP; source: loaded with GMPPNP or GDP on the beads
T2 sequence (looked up): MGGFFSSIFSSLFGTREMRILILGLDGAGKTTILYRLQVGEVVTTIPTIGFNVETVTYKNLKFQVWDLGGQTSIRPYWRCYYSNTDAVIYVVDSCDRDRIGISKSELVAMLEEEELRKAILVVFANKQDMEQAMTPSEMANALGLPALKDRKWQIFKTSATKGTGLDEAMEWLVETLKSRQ

B1: Arl1-GFP (wild type rat Arl1 in pEGFP-N1) (natural protein, UniProt P61212 1-181, looked up)
chain: T2 sequence (looked up)
notes: Arl1, ARF family small GTPase, rat, wild type; source: HEK293, transfected, in lysate
fold reduction of the interaction (IBRP affinity) against wild type GST-GRIP [1]: > 14 fold

B2: GFP-GRIP (Golgin245 GRIP domain wild type in pEGFP-C2) (domain or fragment, UniProt Q13439 2168-2215, looked up)
chain: {GFP}-LFGEPTEFEYLRKVLFEYMMGRETKTMAKVITTVLKFPDDQTQKILER
notes: GRIP domain of Golgin245; source: HEK293, transfected, in lysate
relative IBRP affinity with GMPPNP, fold of that with GDP [2]: 3 fold

B3: GFP-GRIP (Y2177A) (Golgin245 GRIP domain Y2177A mutant in pEGFP-C2) (domain or fragment, UniProt Q13439 2168-2215, looked up)
chain: {GFP}-LFGEPTEFEALRKVLFEYMMGRETKTMAKVITTVLKFPDDQTQKILER
notes: GRIP domain of Golgin245 with Y2177A; source: HEK293, transfected, in lysate
fold reduction of relative IBRP affinity against wild type GRIP domain [2]: ~80 fold
